According to US20170143843A1 (Genentech, published 2017):

Tests used:
human factor D [1] = target: T1, human factor D (human, UniProt P00746 26-253); assay: SPR Biacore T200, Fab captured by anti-huFab, human fD injected, 25 C
T1 construct: also called fD
Description: Antibody Fab fragments were immobilized on a Series S CM5 sensor chip using the anti-huFab capture kit (GE healthcare Cat. #28-9583-25) following a protocol described by the manufacturer. Kinetics of binding were calculated from sensorgrams recorded for injection of 60 μL aliquots of solutions of human factor D varied in concentration from 0.39 nM to 25 nM in 2-fold increments. The flow rate was 30 μL/minute, the running buffer was HBS-P+, the temperature of analysis was 25° C., real-time reference cell subtraction was employed, and dissociation following factor D injection was followed for 10 minutes. After subtraction of the sensorgram observed for injection of running buffer, data were analyzed according to a 1:1 model using BiaEval software v4.1 (GE Healthcare) to extract the kinetics and affinity constants.

human factor D [2] = target: T1, human factor D; assay: cell-based or functional assay
human factor D [3] = target: T1, human factor D; assay: cell-based or functional assay; remark: listed apart in the source
human factor D [4] = target: T1, human factor D; assay: cell-based or functional assay; remark: listed apart in the source
human factor D [5] = target: T1, human factor D; assay: SPR total binding to fD over time; Fab 100 mg/mL in PBS, 37 C, 10 weeks (FIG. 2B)

T1 sequence (P00746 26-253 limits assumed): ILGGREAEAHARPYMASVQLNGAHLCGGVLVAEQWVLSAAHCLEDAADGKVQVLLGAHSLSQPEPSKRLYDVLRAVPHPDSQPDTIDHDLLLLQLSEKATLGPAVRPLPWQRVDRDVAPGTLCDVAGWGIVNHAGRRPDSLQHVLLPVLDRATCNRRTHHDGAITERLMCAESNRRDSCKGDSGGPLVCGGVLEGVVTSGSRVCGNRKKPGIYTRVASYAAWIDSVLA

Binder	Kd (human factor D [1]) [nM]	other results
AFD.v4 (VL-D32S) (Fab, V domains shown, Fab variant of aFD.WT) VH: EVQLVQSGPELKKPGASVKVSCKASGYTFTNYGMNWVRQAPGQGLEWMGWINTYTGETTYADDFKGRFVFSLDTSVSTAYLQISSLKAEDTAVYYCEREGGVNNWGQGTLVTVSS VL: DIQVTQSPSSLSASVGDRVTITCITSTDIDDSMNWYQQKPGKVPKLLISGGNTLRPGVPSRFSGSGSGTDFTLTISSLQPEDVATYYCLQSDSLPYTFGQGTKVEIKR	0.026	–
AFD.v3 (VL-D31S) (Fab, V domains shown, Fab variant of aFD.WT) VH: EVQLVQSGPELKKPGASVKVSCKASGYTFTNYGMNWVRQAPGQGLEWMGWINTYTGETTYADDFKGRFVFSLDTSVSTAYLQISSLKAEDTAVYYCEREGGVNNWGQGTLVTVSS VL: DIQVTQSPSSLSASVGDRVTITCITSTDIDSDMNWYQQKPGKVPKLLISGGNTLRPGVPSRFSGSGSGTDFTLTISSLQPEDVATYYCLQSDSLPYTFGQGTKVEIKR	≤ 0.01	–
AFD.v10 (SIESD.D92E; VL-D28S:D30E:D31S VH-D62E VL-D92E) (Fab, V domains shown, Fab variant of aFD.WT) VH: EVQLVQSGPELKKPGASVKVSCKASGYTFTNYGMNWVRQAPGQGLEWMGWINTYTGETTYAEDFKGRFVFSLDTSVSTAYLQISSLKAEDTAVYYCEREGGVNNWGQGTLVTVSS VL: DIQVTQSPSSLSASVGDRVTITCITSTSIESDMNWYQQKPGKVPKLLISGGNTLRPGVPSRFSGSGSGTDFTLTISSLQPEDVATYYCLQSESLPYTFGQGTKVEIKR	0.07	–
AFD.v9 (VL-D28S:D30E:D31S VH-D62E VL-N34S) (Fab, V domains shown, Fab variant of aFD.WT; also called SIESD + VL-N34S) VH: EVQLVQSGPELKKPGASVKVSCKASGYTFTNYGMNWVRQAPGQGLEWMGWINTYTGETTYAEDFKGRFVFSLDTSVSTAYLQISSLKAEDTAVYYCEREGGVNNWGQGTLVTVSS VL: DIQVTQSPSSLSASVGDRVTITCITSTSIESDMSWYQQKPGKVPKLLISGGNTLRPGVPSRFSGSGSGTDFTLTISSLQPEDVATYYCLQSDSLPYTFGQGTKVEIKR	0.03	–
AFD.v12 (SIESD.N103D; VL-D28S:D30E:D31S VH-D62E VH-N103D) (Fab, V domains shown, Fab variant of aFD.WT) VH: EVQLVQSGPELKKPGASVKVSCKASGYTFTNYGMNWVRQAPGQGLEWMGWINTYTGETTYAEDFKGRFVFSLDTSVSTAYLQISSLKAEDTAVYYCEREGGVDNWGQGTLVTVSS VL: DIQVTQSPSSLSASVGDRVTITCITSTSIESDMNWYQQKPGKVPKLLISGGNTLRPGVPSRFSGSGSGTDFTLTISSLQPEDVATYYCLQSDSLPYTFGQGTKVEIKR	0.023	–
AFD.v5 (VL-D28S:D31S:D32S) (Fab, V domains shown, Fab variant of aFD.WT) VH: EVQLVQSGPELKKPGASVKVSCKASGYTFTNYGMNWVRQAPGQGLEWMGWINTYTGETTYADDFKGRFVFSLDTSVSTAYLQISSLKAEDTAVYYCEREGGVNNWGQGTLVTVSS VL: DIQVTQSPSSLSASVGDRVTITCITSTSIDSSMNWYQQKPGKVPKLLISGGNTLRPGVPSRFSGSGSGTDFTLTISSLQPEDVATYYCLQSDSLPYTFGQGTKVEIKR	0.28	–
AFD.v11 (VL-D28S:D30E:D31S VH-D62E VH-N52S) (Fab, V domains shown, Fab variant of aFD.WT; also called SIESD + VH-N52S) VH: EVQLVQSGPELKKPGASVKVSCKASGYTFTNYGMNWVRQAPGQGLEWMGWISTYTGETTYAEDFKGRFVFSLDTSVSTAYLQISSLKAEDTAVYYCEREGGVNNWGQGTLVTVSS VL: DIQVTQSPSSLSASVGDRVTITCITSTSIESDMNWYQQKPGKVPKLLISGGNTLRPGVPSRFSGSGSGTDFTLTISSLQPEDVATYYCLQSDSLPYTFGQGTKVEIKR	0.07	–
AFD.v8 (SIESD; VL-D28S:D30E:D31S VH-D62E) (Fab, V domains shown, Fab; also called SIESD (AFD.v8)) VH: EVQLVQSGPELKKPGASVKVSCKASGYTFTNYGMNWVRQAPGQGLEWMGWINTYTGETTYAEDFKGRFVFSLDTSVSTAYLQISSLKAEDTAVYYCEREGGVNNWGQGTLVTVSS VL: DIQVTQSPSSLSASVGDRVTITCITSTSIESDMNWYQQKPGKVPKLLISGGNTLRPGVPSRFSGSGSGTDFTLTISSLQPEDVATYYCLQSDSLPYTFGQGTKVEIKR	0.0167	IC50 (nM) AP Hemolysis (rabbit erythrocytes, C1q-depleted human serum) (human factor D [2]): 4.2 nM; Average IC50 fB Activation (pM), TR-FRET, 50 pM fD (human factor D [3]): 27.6 pM
AFD.v14 (SIESD.N103S; VL-D28S:D30E:D31S VH-D62E VH-N103S) (Fab, V domains shown, Fab; also called SIESD.N103S (AFD.v14); AFD.14) VH: EVQLVQSGPELKKPGASVKVSCKASGYTFTNYGMNWVRQAPGQGLEWMGWINTYTGETTYAEDFKGRFVFSLDTSVSTAYLQISSLKAEDTAVYYCEREGGVSNWGQGTLVTVSS VL: DIQVTQSPSSLSASVGDRVTITCITSTSIESDMNWYQQKPGKVPKLLISGGNTLRPGVPSRFSGSGSGTDFTLTISSLQPEDVATYYCLQSDSLPYTFGQGTKVEIKR	0.0256	IC50 (nM) AP Hemolysis (rabbit erythrocytes, C1q-depleted human serum) (human factor D [2]): 4.1 nM; Average IC50 fB Activation (pM), TR-FRET, 50 pM fD (human factor D [3]): 34 pM; Average IC50 fB Activation (pM), TR-FRET, 125 pM fD (human factor D [4]): 87 pM; loss in binding (human factor D [5]): 10%
